Measured values taken from the supplement of paper PMC12042874.
± gives the uncertainty stated by the source.

Experiment: amyloid nucleation score (Sup35N fusion, yeast selection) (log enrichment); library NNK1; higher = more nucleation; inactive = no reads after selection
Summary of the method: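 Sup35N fusions to peptides of 20 random codons were expressed in psi-negative yeast, induced 24 hours with 100 μM copper sulfate, and grown 7 days at 30°C on medium lacking adenine and uracil. Input and output plasmid inserts were sequenced by Illumina. The nucleation score is the DiMSum log enrichment of output over input reads, centred on the mode score of non-aggregating sequences. Sequences with under 100 input reads were excluded.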

Row | Substance | amyloid nucleation score
1 | CCTDIISQRIVGYLMVVC | -0.755 ± 0.68
2 | RESVINIR | 1.28 ± 0.46
3 | SMGLHLMQMAAGEHIGRNR | -0.31 ± 0.4
4 | IYCGNSEF | -0.048 ± 0.79
5 | PGRSTHDIRSGPAEYTDSVC | 0.487 ± 0.63
6 | FEKRALVSDSFYCNGVSRV | 0.082 ± 0.24
7 | VISRSVDYTPM | -0.599 ± 0.46
8 | SRMLPVMFSGP | -1.06 ± 0.89
9 | EWTSCMPLAFMLPLVILSFA | 0.532 ± 0.7
10 | WVWLHDKASLNLL | 0.007 ± 0.72
11 | GEFAYSMVQGHYRIMLMSLK | 1.49 ± 0.68
12 | VRNDQRLLCRRFVKFSDFQS | -0.62 ± 0.95
13 | CYLLSRGYWSDMLGKWARGV | 0.131 ± 0.54
14 | VFGIRFLI | -1.54 ± 2.7
15 | RAPTFMMNLDG | 3.34 ± 0.12
16 | LCNKVWFAECQIHSRQG | -0.144 ± 0.83
17 | KILCMSCFTNSYHARWTFIL | 5.694 ± 0.051
18 | IGLRWYSFLLRMSGLSSTGA | -0.23 ± 0.24
19 | MLFNTHHVYLSTM | 0.987 ± 0.53
20 | CTWYKFDIGWAEGLGYRDYP | 0.282 ± 1.2
21 | PYYRLHANLPDEKRSTAILI | -0.378 ± 0.55
22 | LRTWDSIFYDLMGACGRPWV | -0.521 ± 0.54
23 | QAKPLMLNV | -0.96 ± 1.9
24 | SMRFYYA | 2.97 ± 0.23
25 | SVRVI | 0.105 ± 0.73
26 | VECAYSVTFSKMNRNTDFRV | 0.265 ± 0.35

Row | Substance | amyloid nucleation score
27 | TSSMCVFVSGNSEFVLWALE | 0.286 ± 0.51
28 | NSYQSSFSEFAASICFDTAE | -2.5 ± 2.4
29 | TFSRRASDFEVNV | -1.25 ± 2.7
30 | LNRRLGDVEPIYAGLTSQQS | 0.313 ± 0.3
31 | GACGGKFRVYGKGLILWVRS | 0.253 ± 0.37
32 | VVLQTTPSAYSIMVHLWYYS | 0.472 ± 0.46
33 | RVSAMNEGMRIVCWLVFFRP | -0.166 ± 0.9
34 | VFNARVSYSFNSMCWVRKKQ | -2.08 ± 2.7
35 | VAAACFFNRCWEHTYVMIVK | 3.1 ± 0.17
36 | LEAKSAGRVACQHGVALRVG | 0.674 ± 0.47
37 | YSIFILRSAWMMRRIEMSTA | -0.252 ± 0.45
38 | NDSACIRRSIGSHSFSSCSV | 0.766 ± 0.84
39 | KLFDYAVYLC | 0.936 ± 0.5
40 | NTANIIDTGGDSTPLISRSC | -0.958 ± 0.96
41 | ANGADCYSLSKTEYYYGKTL | -0.129 ± 1.6
42 | VDHTSMWCGFLYTSCLGPDF | -0.758 ± 1.2
43 | RSWLLIKLTSQHASKMLVTG | 0.569 ± 0.46
44 | GARQHATVAREAATLCF | 0.094 ± 1.4
45 | GNVKSTRWFESV | 0.72 ± 0.78
46 | IGSNK | -1.38 ± 0.86
47 | QSSLMLYDERRSNWIKHLAT | -0.232 ± 0.37
48 | FDDFHESARTGFNGKERSQM | 1.01 ± 0.19
49 | FSVRNSSVILEHGVWLNCQG | 0.03 ± 0.97
50 | VMSFILYLSMLCGARDSQRH | 2.89 ± 0.14
51 | RNWYKW | inactive
52 | WTRKS | -0.067 ± 0.35

Row | Substance | amyloid nucleation score
53 | RNIRIR | -0.534 ± 0.25
54 | MVSLDWTSQLGR | 2.18 ± 0.54
55 | GSMLCGEVERMSECKESGGP | -0.354 ± 0.48
56 | RKDLEIWYRMRLGEMPLRWM | -0.165 ± 0.33
57 | VLNNLDLCSIRIVSKVSLFM | 6.88 ± 0.085
58 | PLYLW | inactive
59 | LPCLSMKVLDTNYNLPCSKN | -0.458 ± 0.32
60 | GAYCFSVCNHREL | -0.365 ± 1.1
61 | MIVILTGLLSTNGNLS | 1.64 ± 0.39
62 | HGKYQGTDRYAETGSISGGT | -0.395 ± 0.37
63 | NLVYTAIAPPFASFRK | 0.005 ± 0.65
64 | GNFMNRCAFRRMGYSTISIN | 1.35 ± 0.47
65 | ACSGISILTCIIYRRQYISS | -1 ± 0.91
66 | VMTFLISLSWYSL | 0.328 ± 0.23
67 | PSSKCGCWTTPEMIEGYRNL | -0.119 ± 0.51
68 | LSTTKAIALSYLYGQNVKWS | 0.092 ± 0.21
69 | MVVVLLVD | -0.438 ± 0.9
70 | VFCVRYLRANISCEGHDGWY | 2.28 ± 0.14
71 | FLVMREFMIGCVRAG | 0.186 ± 0.97
72 | TMVVNLARRAPPVLPSGRMT | 0.71 ± 0.74
73 | WIGNRVSSMFDGTGS | 0.538 ± 0.55
74 | ELVSVGLSAIHSSDYNFSFN | 0.45 ± 0.7
75 | YYSVGYGTYLTEFLCGNLRG | 0.989 ± 0.35
76 | FCPPYLSHNNYYWLLVRVFV | 0.322 ± 0.37
77 | YYYVWNFGGWIGFRNVVSIR | 0.05 ± 0.98
78 | FHYYMSFSGDGI | 0.724 ± 0.39

Row | Substance | amyloid nucleation score
79 | GSPLWLVVPVPGEHVSSLSL | -0.047 ± 0.36
80 | VDFLSTNFWSLSVPVAFLGV | -0.31 ± 0.54
81 | SVTRHALSNRSNGKIADCC | -0.306 ± 0.56
82 | GTCTMTKSFMIDIF | 0.235 ± 0.25
83 | VCIFCFRGGMVKRPTLDMVY | 0.564 ± 0.19
84 | FTMSTISCSGSDTIVID | -0.503 ± 0.25
85 | YGLFWN | -1.37 ± 1.5
86 | YQLWPQASMKMCD | 0.258 ± 0.4
87 | RFSGVFSDQLVLSD | -0.713 ± 0.68
88 | FFTKAGRPFGLTRDISVL | -0.23 ± 0.87
89 | CWYWDSPSVGFTAILYYLAG | 0.138 ± 0.57
90 | GVWVGIICKINLKYAFR | 1.23 ± 0.34
91 | LFKNFEWMYSTMTHLSWIWL | -0.335 ± 0.21
92 | AIPRSVITRFLSCLAIEAWQ | 0.627 ± 0.41
93 | HVRHNVYISVCEVARDKRRG | 5.12 ± 0.08
94 | YTMMCGISQRQLTKRRPTLW | -0.205 ± 0.52
95 | IQNDCILVNSVSWYCVSGPP | 5.29 ± 0.064
96 | FCEWYLTDDFFYSLCFFFNE | 0.031 ± 0.55
97 | TSSPKRFLIMKVNCIIILDL | -0.721 ± 0.68
98 | VNVNNLRRTYNIRWVVGPGL | 5.57 ± 0.064
99 | FWGWLRPWLLKSSEDPLKLE | -0.617 ± 0.57
100 | LLFIAG | 0.386 ± 0.66
101 | LESHSNTINIGCKNFGCNRG | 5.38 ± 0.073
102 | RSTKKFSPQDTPHSLHVKKG | 0.574 ± 0.42
103 | GFDKMMCWYYGLTVIVMDGS | -0.076 ± 0.25
104 | CVLFESQ | -0.188 ± 0.44

Row | Substance | amyloid nucleation score
105 | GFYRAERYSRFMRAVGRLSN | -0.771 ± 0.76
106 | WVHWWFRHVNMACQNGGFIF | -0.565 ± 0.68
107 | GNTVRYVKRMYY | -0.056 ± 0.5
108 | RPFSDLSWTLDRVWHRPCWY | 1.04 ± 0.6
109 | DVMLNCCGYCAPGGWVVVFS | 5.33 ± 0.089
110 | FCSKTFL | 1.35 ± 0.46
111 | SLIKGSTKLPR | 0.273 ± 0.6
112 | WTRSFRAFGSSVYWEGRGNH | 1.22 ± 0.26
113 | RTWAEWCLVLVSGFGSGAML | 0.086 ± 0.54
114 | FNGRVDSARCPGVARARHLL | -0.846 ± 2.4
115 | MLFGC | -0.003 ± 0.41
116 | ITEVLKNVKKWFCFIRISVG | 0.113 ± 0.5
117 | RAELTSTTISTASVFGCGIM | 5.17 ± 0.07
118 | LGPLYQFDICGKGTGYGDHE | -0.673 ± 0.71
119 | GTGLVAMVAT | -1.24 ± 1.1
120 | MGIHIFSGRSCTIFLLPSLY | -0.582 ± 1.2
121 | VFKCVNFS | inactive
122 | ECVTCSWF | 0.011 ± 0.38
123 | GVEVAFDVLEETRQWPEYYR | 1.49 ± 0.49
124 | CCLGRR | -0.151 ± 0.52
125 | EYLCLI | 0.147 ± 0.45
126 | FQVVFGYSFMNMATISCVYE | 5.03 ± 0.054
127 | KELKYCVFALVVAD | 0.012 ± 0.63
128 | KSAYVANRGCRRLYGVHNKM | -0.647 ± 0.71
